Experimental data reported in the supplement of paper PMC10126150.
± gives the standard deviation of the averaged measurements.

System: ATP
Assay: switch fluorescence ratio, 500 uM ATP over buffer (Cy3 cluster intensity, sum of 5 cycles each) (fold (ratio)); higher = stronger signal-on switching upon ATP binding; sequences stand for … in TCGTCGGCAGCGTCAGATGTGTATAAGAGACAGTTTTTTTTTTTTTTTTTTTTTTTTT…TC
Conditions: aptamer strand: ATP DNA aptamer (quencher-CACCTGGGGGAGTATTGCGGAGGAAGG + anchor), 100 nM annealed; ATP concentration: 500 uM
Method in brief: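 Clusters with intensities outside 100-1000 RFU were excluded. The remaining Cy3-labelled switching-strand clusters on a modified Illumina MiSeq flow-cell had been annealed to 100 nM quencher-labelled ATP aptamer and imaged in selection buffer, then after 15 min with 500 uM ATP at 22 °C, for five cycles separated by NaOH stripping and re-annealing. The fluorescence ratio, averaged per switch-domain sequence, is each cluster's summed target-cycle Cy3 intensity over its summed buffer-cycle Cy3 intensity.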
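Further: ATP exposure 15 min at 22 °C before imaging.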

| Sequence | switch fluorescence ratio |
| --- | --- |
| AAATTGGACG | 1.08 ± 0.04 |
| AGAGCGGA | 0.981 ± 0.011 |
| CGTTTTGGGG | 0.999 ± 0.032 |
| TTTCCGGTTT | 1.6 ± 1.1 |
| GTAGGTAACG | 0.9867 ± 0.0079 |
| TAAGAGGAGA | 0.987 ± 0.017 |
| TCATTCCATT | 0.988 ± 0.031 |
| TATTTGGGGA | 0.999 ± 0.024 |
| CTACTATAGG | 0.9889 ± 0.0064 |
| TGGGTCGGCA | 1.05 ± 0.023 |
| GAATGGGGCC | 1.01 ± 0.035 |
| AGCTTTCTAT | 0.976 ± 0.011 |
| GAGGGACGAG | 1.05 ± 0.015 |
| AGTCTGGACT | 0.988 ± 0.025 |
| TCTGGGAAAG | 1 ± 0.013 |
| ACGTTATTTA | 1.1534 ± 0.0011 |
| TTTGGTCGGT | 0.986 ± 0.081 |
| AAGTGGAGGG | 0.985 ± 0.021 |
| GTTGTTATTT | 1 ± 0.011 |
| AAGTCATGGA | 1.02 ± 0.027 |
| GGGGGGAGAA | 1.01 ± 0.039 |
| GTGGTTGGTA | 1.02 ± 0.03 |
| TCATACCATT | 1 ± 0.024 |

| Sequence | switch fluorescence ratio |
| --- | --- |
| ACACGCCCAA | 1.12 ± 0.069 |
| AACCAGGACT | 1.02 ± 0.013 |
| TTTGGGAAAT | 1.07 ± 0.1 |
| GATGCGAAAT | 1.06 ± 0.023 |
| GAGCGTCACG | 1.006 ± 0.0055 |
| GGTAGTGAGC | 1.02 ± 0.02 |
| TAAAGATATC | 0.972 ± 0.028 |
| TACGAACTAT | 1.33 ± 0.052 |
| TCGTTGCAGT | 1.02 ± 0.018 |
| TTATAGTTGA | 0.9944 ± 0.0015 |
| AAAACCGGGA | 1.32 ± 0.52 |
| TATTTATGTA | 1.01 ± 0.045 |
| ATTCTTTCTT | 1.002 ± 0.0018 |
| ACGGGGGCTG | 0.996 ± 0.037 |
| TTGTTTCCGA | 1 ± 0.058 |
| ATAGCTCTTA | 0.9764 ± 0.0074 |
| TATGTGTGGG | 1.01 ± 0.026 |
| GAGCTGGGCG | 0.969 ± 0.13 |
| AACGGGATTA | 0.987 ± 0.047 |
| GTGTCTAAAT | 0.989 ± 0.011 |
| CGGTTGTGAG | 1.01 ± 0.031 |
| TGTTAGTTGG | 1.004 ± 0.0038 |
| TGGGTGGGTA | 1.03 ± 0.026 |

| Sequence | switch fluorescence ratio |
| --- | --- |
| GATTTAGGGA | 0.995 ± 0.039 |
| CAATTATTAG | 0.988 ± 0.017 |
| GGGATATTAG | 0.994 ± 0.034 |
| TTTGCACAGT | 1.01 ± 0.021 |
| GAGACGTTTT | 0.97 ± 0.015 |
| TCCTGAGGCG | 1.02 ± 0.022 |
| CCAATGTTTT | 0.98 ± 0.016 |
| GTAGGTATGG | 0.969 ± 0.015 |
| TTTAACGGGA | 1.15 ± 0.17 |
| GGGGTAAGCG | 0.978 ± 0.033 |
| GCATTGTTTT | 0.96 ± 0.038 |
| ATTAGCGTCA | 0.991 ± 0.018 |
| CATCGTGTGT | 0.972 ± 0.011 |
| CGGTGGGGAC | 1.04 ± 0.13 |
| ATCGGGGGA | 1.02 ± 0.051 |
| TCGTAAAATT | 0.986 ± 0.026 |
| GTGTTGGCTT | 0.995 ± 0.033 |
| TCTCTATTT | 0.965 ± 0.048 |
| GTGTGGTGTT | 0.986 ± 0.016 |
| TTGAAGAGGT | 0.976 ± 0.049 |
| ATGATACAGG | 1.08 ± 0.039 |
| GAAGTTTGTG | 1.019 ± 0.0075 |
| TCGGCGGTCT | 0.999 ± 0.025 |

| Sequence | switch fluorescence ratio |
| --- | --- |
| TTGGCTGTAG | 1.13 ± 0.13 |
| ACGTGCTCGT | 0.991 ± 0.041 |
| TCAGGGTTGG | 0.978 ± 0.024 |
| TAGTTCTGGG | 0.9428 ± 0.0012 |
| AGGTCCGACG | 0.967 ± 0.041 |
| TCCTAAGGGC | 1.04 ± 0.038 |
| TTTGTCAAAA | 1 ± 0.025 |
| TTCCTTGGAG | 1.01 ± 0.047 |
| GTTGGGGGCC | 0.997 ± 0.013 |
| TTGATTATCC | 0.99 ± 0.019 |
| TTCGCAGGAT | 1.1 ± 0.027 |
| TGTAGGGGTC | 1.01 ± 0.011 |
| TCGGTACATA | 1.037 ± 0.0066 |
| CCTAGGGTTT | 1 ± 0.038 |
| CGGATCTGAG | 1.01 ± 0.078 |
| CGAAAAATGG | 1.04 ± 0.046 |
| GTGTATCGTC | 0.9819 ± 0.0014 |
| CTAATTAAGT | 0.973 ± 0.028 |
| CAGTGTTGGG | 1.002 ± 0.0016 |
| AAAGGGGGCG | 0.99 ± 0.017 |
| GAACGTACAA | 1.587 ± 0.015 |
| GAAAGTGTTG | 0.9722 ± 0.0058 |
| TCATTCGTCC | 1.099 ± 0.0056 |

| Sequence | switch fluorescence ratio |
| --- | --- |
| TTAGTCAGGA | 1.04 ± 0.057 |
| AGATGTAGTG | 0.9948 ± 0.0036 |
| TTCCGTTAGA | 1.06 ± 0.017 |
| ACGCTGGGGG | 1.06 ± 0.041 |
| TTTTTTGTTT | 1 ± 0.029 |
| CGCCTAGTCG | 1.02 ± 0.074 |
| GTGGGTATGG | 1.002 ± 0.01 |
| GGTCCAGGTT | 1.09 ± 0.068 |
| GGATTGAAGT | 0.981 ± 0.023 |
| TTCGGAGCTG | 1.07 ± 0.14 |
| GAGGATTTCA | 0.99698 ± 0.00049 |
| GATGTATGTG | 1.02 ± 0.042 |
| TGATTGTGCG | 0.957 ± 0.021 |
| ATGAAGGGTG | 1.04 ± 0.036 |
| CGCCGCGTCA | 1 ± 0.038 |
| AAAGGGGTGA | 0.9698 ± 0.0057 |
| GATTAAATAG | 0.9988 ± 0.0032 |
| TGAGTTAGGG | 0.985 ± 0.017 |
| CCAGCGGTTG | 1.025 ± 0.004 |
| GGGTTGTTCT | 0.9792 ± 0.0087 |
| TTTGTCAGTT | 0.956 ± 0.043 |
| CTTCGGAGTG | 1.02 ± 0.023 |
| AGTGCGTGGG | 1.002 ± 0.0061 |

| Sequence | switch fluorescence ratio |
| --- | --- |
| TTTTTTTCAG | 1.01 ± 0.016 |
| ATTATGTAGG | 0.988 ± 0.015 |
| GCCTGAAAGG | 0.993 ± 0.022 |
| TATGAGGGGC | 0.967 ± 0.013 |
| TTCCGTTGAA | 1.05 ± 0.044 |
| AGGCGACTAT | 1 ± 0.011 |
| GCGAACGGAG | 0.998 ± 0.011 |
| AATAGTGGGC | 1.01 ± 0.043 |
| GAGGTACGCG | 1.026 ± 0.0062 |
| GGTCATAGTG | 1.01 ± 0.018 |
| AAAAGAGGCA | 1.02 ± 0.025 |
| GAAATATGTT | 0.999 ± 0.014 |
| GATGGAGTAA | 1.08 ± 0.042 |
| TTGAAGCGGC | 1.59 ± 0.76 |
| TACATACTCT | 1.29 ± 0.023 |
| TAGGGAAATA | 1 ± 0.051 |
| CATCACATGT | 1 ± 0.018 |
| AGCCTTGGGA | 1 ± 0.024 |
| CTGATATGTA | 0.969 ± 0.045 |
| CGGTTAAAGC | 0.94 ± 0.014 |
| CAAAAAGATT | 1.01 ± 0.017 |
| CGGGCGCGTG | 0.978 ± 0.053 |
| TTCCGAAATG | 1.63 ± 0.17 |

| Sequence | switch fluorescence ratio |
| --- | --- |
| GGATTTTATC | 0.992 ± 0.013 |
| GCCAATTTGC | 1.02 ± 0.07 |
| AGATGCCATG | 1.032 ± 0.0075 |
| CGGTGTTAAC | 0.957 ± 0.036 |
| TATGCGTTTT | 0.98 ± 0.013 |
| ATCGATTGTT | 1.01 ± 0.031 |
| GGGTTTGTTG | 0.988 ± 0.026 |
| TAGATGACGG | 1.01 ± 0.041 |
| TAAGGTACGA | 1.052 ± 0.0032 |
| CCGTTAGGCG | 0.987 ± 0.029 |
| AAAATTCAAG | 0.983 ± 0.016 |
| TTGACTTATA | 1.01 ± 0.022 |
| AAGAGCGAAG | 1.01 ± 0.014 |
| ATCTTGTTGG | 1.13 ± 0.27 |
| TTATTTCCAC | 0.986 ± 0.013 |
| GTCCGGGGGC | 1.13 ± 0.04 |
| CGGGGTTTGT | 1.01 ± 0.011 |
| GTATGTAGTG | 0.966 ± 0.023 |
| TAGCGTAAAT | 0.9913 ± 0.0049 |
